The target of assay [1] is human TIM-3 protein with hFc tag (hTIM-3-hFc protein) (human) (UniProt Q8TDQ0). Kind of assay: ELISA, hTIM-3-hFc coated at 1 ug/ml; antibody 0.11 nM.
For assay [2] the target is unchanged. As to the kind of experiment: ELISA, hTIM-3-hFc coated at 1 ug/ml; antibody 0.53 nM.
For assay [3] the target is unchanged. Kind of assay: ELISA, hTIM-3-hFc coated at 1 ug/ml; antibody 2.67 nM.
The target is the same in assay [4]. Kind of assay: ELISA, hTIM-3-hFc coated at 1 ug/ml; antibody 66.7 nM.
For assay [5] the target is unchanged. As to the kind of experiment: ELISA, hTIM-3-hFc coated at 1 ug/ml; antibody 0.021 nM.
Assay [6] has the same target. Kind of assay: ELISA, hTIM-3-hFc coated at 1 ug/ml; antibody 13.34 nM.
Assay [7] shares this target. As to the kind of experiment: ELISA, hTIM-3-hFc coated at 1 ug/ml; antibody 0.0043 nM.
The target is the same in assay [8]. Kind of assay: ELISA, hTIM-3-hFc coated at 1 ug/ml; antibody 0 nM (blank).
In assay [9] the target is human TIM-3 protein on human PBMC (human) (UniProt Q8TDQ0). Kind of assay: cell-based or functional assay.
Chain of human TIM-3 protein on human PBMC (human) (Q8TDQ0 22-301 limits assumed): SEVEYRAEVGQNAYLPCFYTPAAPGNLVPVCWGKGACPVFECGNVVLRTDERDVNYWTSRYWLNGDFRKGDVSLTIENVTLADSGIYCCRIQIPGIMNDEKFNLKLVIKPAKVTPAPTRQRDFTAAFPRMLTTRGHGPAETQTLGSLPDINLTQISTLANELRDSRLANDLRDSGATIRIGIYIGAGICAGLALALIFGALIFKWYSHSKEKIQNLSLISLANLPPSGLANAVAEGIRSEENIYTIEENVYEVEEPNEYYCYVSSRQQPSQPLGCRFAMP
The target of assay [10] is human TIM-3, full length, on cells (human) (UniProt Q8TDQ0). As to the kind of experiment: FACS, CHOK1-hTIM-3 cells; antibody 8 nM.
Chain of human TIM-3, full length, on cells (human) (Q8TDQ0 22-301 limits assumed): as above
For assay [11] the target is unchanged. Kind of assay: FACS, CHOK1-hTIM-3 cells; antibody 40 nM.
Assay [12] shares this target. Kind of assay: FACS, CHOK1-hTIM-3 cells; antibody 1.6 nM.
The target is the same in assay [13]. As to the kind of experiment: FACS, CHOK1-hTIM-3 cells; antibody 200 nM.
The target is the same in assay [14]. Kind of assay: FACS, CHOK1-hTIM-3 cells; antibody 0.32 nM.
Assay [15] shares this target. Kind of assay: FACS, CHOK1-hTIM-3 cells; antibody 0.013 nM.
The target is the same in assay [16]. Kind of assay: FACS, CHOK1-hTIM-3 cells; antibody 0.064 nM.
For assay [17], the target named is human TIM-3 protein with hFc tag (hTIM-3-hFc protein) (human) (UniProt Q8TDQ0). As to the kind of experiment: ELISA, coated hTIM-3-hFc; antibody 0.0001 nM.
The target is the same in assay [18]. As to the kind of experiment: ELISA, coated hTIM-3-hFc; antibody 0.0007 nM.
Assay [19] shares this target. Kind of assay: ELISA, coated hTIM-3-hFc; antibody 0.0067 nM.
For assay [20] the target is unchanged. As to the kind of experiment: ELISA, coated hTIM-3-hFc; antibody 0.0667 nM.
For assay [21] the target is unchanged. As to the kind of experiment: ELISA, coated hTIM-3-hFc; antibody 0.6667 nM.
Assay [22] shares this target. Kind of assay: ELISA, coated hTIM-3-hFc; antibody 6.6667 nM.
Assay [23] shares this target. Kind of assay: ELISA, coated hTIM-3-hFc; antibody 66.667 nM.
Assay [24] deals with monkey TIM-3 protein with hFc tag (cTIM-3-hFc protein) (monkey; human). As to the kind of experiment: ELISA, coated cTIM-3-hFc; antibody 0.0001 nM.
Chain of monkey TIM-3 protein with hFc tag (cTIM-3-hFc protein) (monkey; human) (chain, as listed by the source): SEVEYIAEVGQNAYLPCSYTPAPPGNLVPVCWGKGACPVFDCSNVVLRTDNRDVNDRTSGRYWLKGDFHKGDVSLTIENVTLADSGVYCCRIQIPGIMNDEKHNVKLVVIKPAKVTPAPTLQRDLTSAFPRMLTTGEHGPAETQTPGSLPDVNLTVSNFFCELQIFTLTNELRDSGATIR
The target is the same in assay [25]. Kind of assay: ELISA, coated cTIM-3-hFc; antibody 0.0007 nM.
Assay [26] has the same target. As to the kind of experiment: ELISA, coated cTIM-3-hFc; antibody 0.0067 nM.
Assay [27] shares this target. Kind of assay: ELISA, coated cTIM-3-hFc; antibody 0.0667 nM.
Assay [28] shares this target. Kind of assay: ELISA, coated cTIM-3-hFc; antibody 0.6667 nM.
Assay [29] has the same target. As to the kind of experiment: ELISA, coated cTIM-3-hFc; antibody 6.6667 nM.
Assay [30] shares this target. As to the kind of experiment: ELISA, coated cTIM-3-hFc; antibody 66.667 nM.
Assay [31] has as its target murine TIM-3 protein with hFc tag (mTIM-3-hFc protein) (mouse; human) (UniProt Q8VIM0). Kind of assay: ELISA, coated mTIM-3-hFc; antibody 0.0001 nM.
Assay [32] shares this target. As to the kind of experiment: ELISA, coated mTIM-3-hFc; antibody 0.0007 nM.
Assay [33] has the same target. Kind of assay: ELISA, coated mTIM-3-hFc; antibody 0.0067 nM.
Assay [34] shares this target. As to the kind of experiment: ELISA, coated mTIM-3-hFc; antibody 0.0667 nM.
For assay [35] the target is unchanged. As to the kind of experiment: ELISA, coated mTIM-3-hFc; antibody 0.6667 nM.
Assay [36] has the same target. Kind of assay: ELISA, coated mTIM-3-hFc; antibody 6.6667 nM.
The target is the same in assay [37]. Kind of assay: ELISA, coated mTIM-3-hFc; antibody 66.667 nM.
For assay [38], the target named is human TIM-3 protein with hFc tag (hTIM-3-hFc protein) (human) (UniProt Q8TDQ0). As to the kind of experiment: ELISA, coated hTIM-3-hFc; antibody 0 nM (blank).
For assay [39], the target named is monkey TIM-3 protein with hFc tag (cTIM-3-hFc protein) (monkey; human). Kind of assay: ELISA, coated cTIM-3-hFc; antibody 0 nM (blank).
In assay [40] the target is murine TIM-3 protein with hFc tag (mTIM-3-hFc protein) (mouse; human) (UniProt Q8VIM0). Kind of assay: ELISA, coated mTIM-3-hFc; antibody 0 nM (blank).
Chain of murine TIM-3 protein with hFc tag (mTIM-3-hFc protein) (mouse; human) (Q8VIM0 other isoform, or with tags, fused parts or gaps): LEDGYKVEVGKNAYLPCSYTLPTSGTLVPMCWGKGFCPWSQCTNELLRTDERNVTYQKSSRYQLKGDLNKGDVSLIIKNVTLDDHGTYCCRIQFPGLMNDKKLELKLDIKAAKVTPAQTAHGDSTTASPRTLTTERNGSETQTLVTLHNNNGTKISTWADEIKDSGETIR
The target in assay [41] is human TIM-3, full length, on cells (human) (UniProt Q8TDQ0). As to the kind of experiment: FACS, CHOK1-hTIM-3 cells; antibody 0 nM (blank).
Assay [42] addresses TIM-3 protein on human peripheral blood mononuclear lymphocytes (PBMC) (human) (UniProt Q8TDQ0). Kind of assay: cell-based or functional assay.
The target of assay [43] is monkey TIM-3 on CHOK1 stable cell line (CHOK1-cTIM-3) (monkey). As to the kind of experiment: FACS, CHOK1-cTIM-3 cells, 0 nM antibody.
Chain of monkey TIM-3 on CHOK1 stable cell line (CHOK1-cTIM-3) (monkey) (chain, as listed by the source limits assumed): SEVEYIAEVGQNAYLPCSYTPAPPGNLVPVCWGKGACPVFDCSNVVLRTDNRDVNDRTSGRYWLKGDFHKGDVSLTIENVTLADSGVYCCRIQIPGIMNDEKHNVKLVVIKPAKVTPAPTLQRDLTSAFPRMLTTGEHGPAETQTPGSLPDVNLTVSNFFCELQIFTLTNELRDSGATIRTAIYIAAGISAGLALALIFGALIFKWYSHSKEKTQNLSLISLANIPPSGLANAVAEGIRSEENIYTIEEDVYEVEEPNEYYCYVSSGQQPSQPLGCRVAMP
Assay [44] shares this target. As to the kind of experiment: FACS, CHOK1-cTIM-3 cells, 8 nM antibody.
Assay [45] has the same target. As to the kind of experiment: FACS, CHOK1-cTIM-3 cells, 40 nM antibody.
Assay [46] shares this target. As to the kind of experiment: FACS, CHOK1-cTIM-3 cells, 1.6 nM antibody.
For assay [47] the target is unchanged. Kind of assay: FACS, CHOK1-cTIM-3 cells, 200 nM antibody.
For assay [48] the target is unchanged. Kind of assay: FACS, CHOK1-cTIM-3 cells, 0.32 nM antibody.
Assay [49] shares this target. Kind of assay: FACS, CHOK1-cTIM-3 cells, 0.013 nM antibody.
The target is the same in assay [50]. Kind of assay: FACS, CHOK1-cTIM-3 cells, 0.064 nM antibody.

Several values for one entry are separate records, joined by “and”; a condition that tells them apart may be missing. Equal values may be shown once.

Chain of human TIM-3 protein with hFc tag (hTIM-3-hFc protein) (human) (Q8TDQ0 22-200): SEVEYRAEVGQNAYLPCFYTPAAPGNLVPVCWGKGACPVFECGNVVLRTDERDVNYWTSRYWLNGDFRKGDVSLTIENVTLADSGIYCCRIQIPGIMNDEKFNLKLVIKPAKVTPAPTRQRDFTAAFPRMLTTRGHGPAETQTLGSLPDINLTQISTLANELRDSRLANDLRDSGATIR
Chain of TIM-3 protein on human peripheral blood mononuclear lymphocytes (PBMC) (human) (Q8TDQ0 22-301 limits assumed): as the sequence (Q8TDQ0 22-301 limits assumed) above

As to “commercially available anti-TIM-3 antibody (R&D system, MAB2365)”, the OD450 nm was 3.23 and 3.27 in assay [1]; 3.52 and 3.38 in assay [2]; 3.42 and 3.32 in assay [3]; 3.48 and 3.44 in [4]; 1.78 and 1.75 in assay [5]; 3.45 and 3.42 in assay [6]. Besides, the OD450 nm in assay [7] is 0.92 and 0.86; in assay [8], 0.6 and 0.59.
In the case of hIgG control (human IgG) (antibody), in [9], the IFN-γ production, lymphocyte activation assay (donor Y), negative control IgG 0.1 µg/ml, N = 1 turned out to be 2100 pg/mL; the IFN-γ production, lymphocyte activation assay (donor Y), negative control IgG 0.1 µg/ml, N = 2 was determined as 2020 pg/mL; the IFN-γ production, lymphocyte activation assay (donor Y), negative control IgG 1 µg/ml, N = 1 was 2190 pg/mL; the IFN-γ production, lymphocyte activation assay (donor Y), negative control IgG 1 µg/ml, N = 2 was found to be 1770 pg/mL. In assay [9], this substance had an IFN-γ production, lymphocyte activation assay (donor Y), negative control IgG 10 µg/ml, N = 1 of 1930 pg/mL; an IFN-γ production, lymphocyte activation assay (donor Y), negative control IgG 10 µg/ml, N = 2 of 1980 pg/mL; an IFN-γ production, lymphocyte activation assay (donor Y), negative control IgG, concentration head printed '0' (fifth), N = 1 of 2000 pg/mL; an IFN-γ production, lymphocyte activation assay (donor Y), negative control IgG, concentration head printed '0' (fifth), N = 2 of 2070 pg/mL. In assay [9], the IFN-γ production, lymphocyte activation assay (donor Y), negative control IgG, concentration head printed '0' (fourth), N = 1 was 1990 pg/mL and the IFN-γ production, lymphocyte activation assay (donor Y), negative control IgG, concentration head printed '0' (fourth), N = 2 was determined as 2160 pg/mL.
As for rat IgG (negative control antibody), the Mean fluorescence intensity in [10] was determined as 3.1; in assay [11], 3.3; in [12] it was 3; in assay [13], 3.8; in assay [14], 3; in [15], 3. Also, the Mean fluorescence intensity in [16] and in [41] was 3 throughout. Moreover, the OD450 in assay [17] was 0.11; in assay [18] it was 0.12; in assay [19], 0.12; in [20] it was 0.12; in assay [21] it was 0.13; in assay [22], 0.13. The OD450 in [23] worked out at 0.22; in assay [24], 0.54; in [25], 0.55; in assay [26], 0.57; in assay [27], 0.54; in assay [28], 0.55. In addition, the OD450 in assay [29] worked out at 0.58; in assay [30], 0.68; in [31], 0.63; in assay [32], 0.67; in [33], 0.62; in assay [34], 0.64. Besides, the OD450 in assay [35] worked out at 0.66; in [36], 0.65; in [37], 0.75; in assay [38], 0.11; in assay [39] it was 0.55; in [40], 0.6. In addition, the OD450 nm in assay [1] is 0.6 and 0.59; in assay [2], 0.63 and 0.65; in assay [3] it was 0.69 and 0.58; in assay [4], 0.72 and 0.7; in [5] it was 0.55 and 0.58; in assay [6], 0.63. Moreover, the OD450 nm in assay [7] is 0.63 and 0.59; in [8], 0.61 and 0.59.
In assay [42], rat IgG control (antibody) showed an IFN production; antibody 0.001 µg/ml (4th head as printed), N = 1 of 738 pg/mL; an IFN production; antibody 0.001 µg/ml (4th head as printed), N = 2 of 786 pg/mL; an IFN production; antibody 0.001 µg/ml (5th head as printed), N = 1 of 727 pg/mL; an IFN production; antibody 0.001 µg/ml (5th head as printed), N = 2 of 714 pg/mL. In addition, in assay [42], the IFN production; antibody 0.1 µg/ml, N = 1 turned out to be 718 pg/mL; the IFN production; antibody 0.1 µg/ml, N = 2 turned out to be 664 pg/mL; the IFN production; antibody 1 µg/ml, N = 1 was 694 pg/mL; the IFN production; antibody 1 µg/ml, N = 2 came to 574 pg/mL. In assay [42], this substance had an IFN production; antibody 10 µg/ml, N = 1 of 620 pg/mL and an IFN production; antibody 10 µg/ml, N = 2 of 582 pg/mL. This substance came in with a Mean fluorescence intensity in assay [43] of 3.2. Also, in assay [44], the Mean fluorescence intensity was 3.8. In [45], this substance yielded a Mean fluorescence intensity of 3.7. In [46], this substance displayed a Mean fluorescence intensity of 3.6. Moreover, in assay [47], the Mean fluorescence intensity was 4.8. In assay [48], this substance yielded a Mean fluorescence intensity of 3.5. In assay [49], this substance returned a Mean fluorescence intensity of 3.3. The Mean fluorescence intensity in assay [50] turned out to be 3.4.

The record behind these values is patent publication US20220033501A1.
